Here are results for one molecule from PMC11383277 (bioRxiv, 2024).

This assay concerns the target human NaV1.8 alpha-subunit (human, UniProt Q9Y5Y9 1-1956, M1713V). The assay can be described thus: cryo-EM structure.

In the case of ECRYWLGGCSAGQTCCKHLVCSRRHGWCVWDGTFS [Protoxin-I], the binding result is “binds”.
